Values of other authors as cited in PMC10860761.

How the values were obtained:
actin monomer (ATP) = actin monomer (ATP) (UniProt P60010)
actin monomer (ADP) = actin monomer (ADP) (UniProt P60010)

Sequence of Srv2/CAP CARP (P17555 369-526): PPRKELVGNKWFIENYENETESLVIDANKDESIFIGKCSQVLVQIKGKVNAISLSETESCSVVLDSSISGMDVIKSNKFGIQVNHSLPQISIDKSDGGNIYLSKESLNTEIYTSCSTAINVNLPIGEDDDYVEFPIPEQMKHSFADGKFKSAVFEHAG
Sequence of Srv2/CAP WH2 (P17555 287-336): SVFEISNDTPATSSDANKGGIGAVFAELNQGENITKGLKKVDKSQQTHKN

Kd (actin monomer (ATP)) [nM] | Kd (actin monomer (ADP)) [nM] | Substance
1000 |  | Srv2/CAP WH2 (from UniProt P17555)
 | 1500 | Srv2/CAP CARP (from UniProt P17555)
